In paper PMC3463529 one finds polypeptide chains in the complex (peak A, 395aa/410aa and truncated variants together) (polypeptide chains) and stoichiometry N (polypeptide chains) data, which are given here for two substances.

Assay in all cases: SEC; Superose12 10/300 GL, lysis buffer for native purification, 0.4 ml/min; concentrated Ni2+-NTA eluate of GFP-perlucin (~20 mg/ml); peak fractions analysed by SDS-PAGE; sizes estimated against gel filtration standards (12 kDa - 2 MDa)
In experiment [1] the target is His-tagged GFP-perlucin derivative lacking 15 C-terminal amino acids (395 amino acids, 45 kDa) (Aequorea victoria | Haliotis laevigata) (UniProt P82596).
Experiment [2] addresses full length His-tagged GFP-perlucin (410 amino acids, 46.8 kDa) (Aequorea victoria | Haliotis laevigata) (UniProt P82596).
The target of experiment [3] is truncated His-tagged GFP-perlucin lacking 141 C-terminal amino acids (Aequorea victoria | Haliotis laevigata) (UniProt P82596).
The target of experiment [4] is truncated His-tagged GFP-perlucin lacking 145 C-terminal amino acids (Aequorea victoria | Haliotis laevigata) (UniProt P82596).

Regarding “truncated His-tagged GFP-perlucin lacking 141 C-terminal amino acids (from UniProt P82596 1-14)”, the polypeptide chains in the complex (peak A, 395aa/410aa and truncated variants together) (polypeptide chains) in experiment [1] and in experiment [2] was 50 each time. Besides, the stoichiometry N (polypeptide chains) in experiment [3] is 3 to 5.
Take “truncated His-tagged GFP-perlucin lacking 145 C-terminal amino acids (from UniProt P82596 1-10)”: the polypeptide chains in the complex (peak A, 395aa/410aa and truncated variants together) (polypeptide chains) in experiment [1] and in experiment [2] was 50 each time. Further, in experiment [4], the stoichiometry N (polypeptide chains) was 3 to 5.
